# B1: Phosphopantetheine adenylyltransferase from B. pseudomallei strain 1710b, tag removed (GPGS-ORF) (enzyme)
# chain: MVVAVYPGTFDPLTRGHEDLVRRASSIFDTLVVGVADSRAKKPFFSLEERLKIANEVLGHYPNVKVMGFTGLLKDFVRANDARVIVRGLRAVSDFEYEFQMAGMNRYLLPDVETMFMTPSDQYQFISGTIVREIAQLGGDVSKFVFPSVEKWLTEKVAAMAQGPSA
# notes: also called Bp PPAT; PPAT
# B2: Phosphopantetheine adenylyltransferase from B. pseudomallei strain 1710b, with the full-length expression tag (…-ORF) (enzyme)
# chain: B1 chain
# notes: also called Bp PPAT; PPAT
# Molecular target: the molecule itself
# Experiment: crystal structure
row,Protein,stoichiometry N
1,B1,6
2,B2,6

# From paper PMC3169398, “Structures of phosphopantetheine adenylyltransferase from Burkholderia pseudomallei” (Acta Crystallographica Section F: Structural Biology and …, 2011)
